T1: Soluble CD22 (PeproTech) (human, UniProt P20273 20-687, limits assumed)
T1 construct: Bought from PeproTech; also called sCD22; soluble CD22 purified from mammalian cells
T1 sequence: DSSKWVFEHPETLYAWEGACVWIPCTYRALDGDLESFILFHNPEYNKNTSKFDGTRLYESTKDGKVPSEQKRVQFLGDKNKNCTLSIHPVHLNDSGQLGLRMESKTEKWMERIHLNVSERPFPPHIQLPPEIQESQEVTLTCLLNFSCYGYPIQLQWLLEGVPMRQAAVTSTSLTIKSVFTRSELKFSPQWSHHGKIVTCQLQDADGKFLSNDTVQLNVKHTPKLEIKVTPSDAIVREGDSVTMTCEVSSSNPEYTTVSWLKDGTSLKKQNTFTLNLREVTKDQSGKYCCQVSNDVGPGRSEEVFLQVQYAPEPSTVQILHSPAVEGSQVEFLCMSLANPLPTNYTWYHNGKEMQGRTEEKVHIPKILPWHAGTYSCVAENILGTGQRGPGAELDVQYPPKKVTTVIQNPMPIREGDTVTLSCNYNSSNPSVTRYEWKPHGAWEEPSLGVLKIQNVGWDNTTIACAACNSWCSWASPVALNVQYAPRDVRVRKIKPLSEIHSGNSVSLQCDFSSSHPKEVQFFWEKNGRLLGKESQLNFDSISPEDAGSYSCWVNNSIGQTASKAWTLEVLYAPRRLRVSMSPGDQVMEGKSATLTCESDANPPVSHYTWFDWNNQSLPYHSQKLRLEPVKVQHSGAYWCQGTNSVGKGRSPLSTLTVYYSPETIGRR

T2: native, cell surface-associated CD22 on B lymphoma cell lines (Raji, BJAB, ST486) (human, UniProt P20273 20-847)
T2 construct: Endogenous CD22 of Raji, BJAB and ST486 cells; the cell line is named under assay; also called cell surface CD22; cell-associated CD22
T2 sequence: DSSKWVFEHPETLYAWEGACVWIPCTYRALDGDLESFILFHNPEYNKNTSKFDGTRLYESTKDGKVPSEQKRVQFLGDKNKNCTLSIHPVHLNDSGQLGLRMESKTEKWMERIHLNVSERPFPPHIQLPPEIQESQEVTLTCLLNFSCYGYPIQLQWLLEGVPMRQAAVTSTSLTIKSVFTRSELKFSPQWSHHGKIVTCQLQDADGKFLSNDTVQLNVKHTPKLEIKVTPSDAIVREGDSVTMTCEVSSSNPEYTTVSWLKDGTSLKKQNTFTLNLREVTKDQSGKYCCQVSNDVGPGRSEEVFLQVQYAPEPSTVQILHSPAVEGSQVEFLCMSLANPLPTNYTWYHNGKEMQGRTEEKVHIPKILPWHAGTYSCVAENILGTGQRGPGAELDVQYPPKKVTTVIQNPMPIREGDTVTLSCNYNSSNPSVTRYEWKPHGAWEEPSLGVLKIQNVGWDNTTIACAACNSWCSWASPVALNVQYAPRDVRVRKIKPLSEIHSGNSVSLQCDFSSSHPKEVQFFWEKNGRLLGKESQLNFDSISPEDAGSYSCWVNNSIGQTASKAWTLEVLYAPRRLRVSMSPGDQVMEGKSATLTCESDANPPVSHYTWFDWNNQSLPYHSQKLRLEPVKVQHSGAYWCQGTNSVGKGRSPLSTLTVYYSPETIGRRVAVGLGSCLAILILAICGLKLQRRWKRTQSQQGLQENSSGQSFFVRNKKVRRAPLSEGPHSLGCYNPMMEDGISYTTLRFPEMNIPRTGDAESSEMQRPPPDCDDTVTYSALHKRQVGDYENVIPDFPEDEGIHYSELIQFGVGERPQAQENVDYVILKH

B1: Fab m972 (Fab, V domains shown)
VH: EVQLVQSGGGVVRPGGSLRLPCAASGFTFDDYGMSWVRQAPGKGLEWVSGINWNGGSTGYADSVKGRFTISRDNAKNSLYLQMNSLRAEDTALYHCARGGDDAFDIWGQGTMVTVSS
VL: RIVMTQSPGTLSVSPGETATLSCRASQSFSNMLAWYQQKSGQPPRLLIYGVSTRAAGVPARFSGSGSGTEFTLTISNLQSEDFAVYYCQQYGDWPRYTFGQGTKVERKR
notes: Human Fab from a naive Fab phage library, expressed in E. coli HB2151; also called m972 Fab
B2: IgG1 m972 (antibody, V domains shown)
VH: B1 VH
VL: B1 VL
notes: IgG1 format made by moving the heavy and light chains of the clone into pDR12, expressed in 293 free style cells; also called m972 IgG1; not shown: rest of the human IgG1 heavy chain constant region from vector pDR12

Experiments:
Soluble CD22 (PeproTech) [1] = biological target: T1, Soluble CD22 (PeproTech); assay: ELISA, Fab on coated soluble CD22
Method: (§1) CD22 or CD22-Fc in PBS was coated to a 96-well plate overnight at 4° C. The plate was then washed with PBST (PBS+0.05% Tween) and blocked with PBST supplemented with 5% dry milk. Fab, scFv or IgG1 diluted in PBST+milk was added to the wells. The Fab and scFv binding was detected using the anti-His-IgG-HRP (Qiagen) and the IgG1 binding was detected using the anti-human Fc-IgG-HRP (Sigma, St. Louis, Mo.). After washing, ABTS substrate (Roche, Mannheim, Germany) was added to each well and OD₄₀₅ was recorded after five to ten minutes.

Soluble CD22 (PeproTech) [2] = biological target: T1, Soluble CD22 (PeproTech); assay: ELISA, Fab on coated soluble CD22; reference Fab m971
Soluble CD22 (PeproTech) [3] = biological target: T1, Soluble CD22 (PeproTech); assay: ELISA, IgG1 on coated soluble CD22
Method: as §1

[4] = biological target: T2, native, cell surface-associated CD22 on …; assay: flow cytometry titration on BJAB cells, apparent affinity from median fluorescence against concentration
Method: SupT1, Raji, BJAB, and ST486 cells in suspension culture were collected by centrifugation and then re-suspended in ice-cold RPMI+10% FBS medium at a density of 1×10⁶/ml. ScFv or IgG1 at different concentrations were added to the cells. Cells were left on ice for half an hour before being washed with the same complete RPMI medium. […] For IgG1, anti-human-IgG-FITC was added to the cells. The cells were then washed with RPMI medium twice and re-suspended in PBS and subjected to flow cytometry analysis using the FACSCalibur™ (Becton Dickinson, San Jose, Calif.)
The binding characteristics of the two IgGs to cell surface-associated CD22 was further analyzed by using increasing concentrations of both IgGs against BJAB cells in a flow cytometry assay.

Binder	EC50 (Soluble CD22 (PeproTech) [1]) [nM]	fold better binding than m971 (Soluble CD22 (PeproTech) [2]) [fold]	EC50 (Soluble CD22 (PeproTech) [3]) [nM]	Kd [4] [nM]
B1	2	10		
B2			< 1	~15
